This is an account of results in US20060121047A1, “Use of hmgb polypetides for increasing immune responses” (priority 2002, published 2006).

Marks after values point to notes of the source that are not given here.

Series [1] deals with RAW 264.7 cells. The series is described as follows: IL-6 release from RAW 264.7 cells (ELISA). In kind it is cell-based, murine. The conditions noted are these: B box 0-10 μg/ml, 8 hours (FIG. 2C). Here is the method: (§1) Murine macrophage-like RAW 264.7 cells (American Type Culture Collection, Rockville, Md.) were cultured in RPMI 1640 medium (Life Technologies, Grand Island N.Y.) supplemented with 10% fetal bovine serum (Gemini, Catabasas, Calif.), penicillin and streptomycin (Life Technologies) and were used at 90% confluence in serum-free Opti-MEM I medium (Life Technologies, Grand Island, N.Y.). […] Polymyxin B was not used in experiments of synthetic peptide studies.
(§2) To further examine the effect of HMGB1 B box on cytokine production, varying amounts of HMGB1 B box were evaluated for the effects on TNF, IL-1B, and IL-6 production in murine macrophage-like RAW 264.7 cells. Conditioned media were harvested and measured for TNF, IL-1β and IL-6 levels. TNF levels were measured as described herein, and IL-1β and IL-6 levels were measured using the mouse IL-1β and IL-6 enzyme-linked immunosorbent assay (ELISA) kits (R&D System Inc., Minneapolis, 1) and N>5 for all experiments.
A general note: An ELISA detects its analyte on a solid surface through an enzyme-linked reagent.

For series [2], the system named is C3H/HeJ mice. The experiment in a line: Lethality and histology in C3H/HeJ mice. In kind it is in vivo. The text has this: (§3) Male 6-8 week old Balb/c and C3H/HeJ mice were purchased from Harlen Sprague-Dawley (Indianapolis, Ind.) and were allowed to acclimate for 7 days before use in experiments. All animals were housed in the North Shore University Hospital Animal Facility under standard temperature, and a light and dark cycle.

For series [3], the system named is Murine macrophage-like RAW 264.7 cells. The series is described as follows: TNF release from RAW 264.7 cells (L929 cytotoxicity bioassay). The series is classed as cell-based. The conditions noted are these: for TNF release, dose dependence: B box 0-10 μg/ml, 8 hours (FIG. 2A). Here is the method:
as §1
TNF release was measured by a standard murine fibroblast L929 (ATCC, American Type Culture Collection, Rockville, Md.) cytotoxicity bioassay (Bianchi et al., Journal of Experimental Medicine 183:927-936, 1996) with the minimum detectable concentration of 30 pg/ml. Recombinant mouse TNF was obtained from R&D system Inc., (Minneapolis, MN). Murine fibroblast L929 cells (ATCC) were cultured in DMEM (Life Technologies, Grand Island, N.Y.) supplemented with 10% fetal bovine serum (Gemini, Catabasas, Calif.), penicillin (50 units/ml) and streptomycin (50 μg/ml) (Life Technologies) in a humidified incubator with 5% CO2.
The effect of the mutants on TNF release from Murine macrophage-like RAW 264.7 cells (ATCC) was carried out as follows. RAW 264.7 cells were cultured in RPMI 1640 medium (Life Technologies, Grand Island N.Y.) supplemented with 10% fetal bovine serum (Gemini, Catabasas, Calif.), penicillin and streptomycin (Life Technologies). Polymyxin (Sigma, St. Louis, Mo.) was added at 100 units/ml to suppress the activity of any contaminating LPS. Cells were incubated with 1 μg/ml of full length (wild-type) HMGB1 and each HMGB1 mutant protein in Opti-MEM I medium for 8 hours, and conditioned supernatants (containing TNF which had been released from the cells) were collected and TNF released from the cells was measured by a standard murine fibroblast L929 (ATCC) cytotoxicity bioassay (Bianchi et al., supra) with the minimum detectable concentration of 30 pg/ml. Recombinant mouse TNF was obtained from R & D Systems Inc., (Minneapolis, Minn.) and used as control in these experiments. Data in FIG. 1 are all presented as mean+SEM unless otherwise indicated. (=6−10).
as §2
The kinetics of B box-induced TNF release was also examined. TNF release and TNF mRNA expression was measured in RAW 264.7 cells induced by B box polypeptide or GST tag polypeptide only used as a control (vector) (10 μg/ml) for 0 to 48 hours. Supernatants were analyzed for TNF protein levels by an L929 cytotoxicity assay (N=3-5) as described herein. For mRNA measurement, cells were plated in 100 mm plate and treated in Opti-MEM I medium containing B box polypeptide or the vector alone for 0, 4, 8, or 24 hours, as indicated in FIG. 2D. The vector only sample was assayed at the 4 hour time point. Cells were scraped off the plate and total RNA was isolated by RNAzol B method in accordance with the manufacturer's instructions (Tel-Test “B”, Inc., Friendswood, Tex.). TNF (287 bp) was measured by RNase protection assay (Ambion, Austin, Tex.). Equal loading and the integrity of RNA was verified by ethidium bromide staining of the RNA sample on agarose-formaldehyde gel. […] TNF mRNA expression was maximal at 4 hours and decreased at 8 and 24 hours. […] A similar study was carried out measuring TNF protein released from RAW 264.7 cells 0, 4, 8, 24, 32 or 48 hours after administration of B box or vector only (GST tag), using the L929 cytotoxicity assay described herein. […] Data are representative of three separate experiments. […]

The test system of series [4] is D-galactosamine-sensitized Balb/c mice. The series is described as follows: Toxicity (survival) in D-galactosamine-sensitized Balb/c mice. In kind it is in vivo. The conditions noted are these: for Alive/total: survival monitored up to 7 days.
Description: as §3
The D-galactosamine-sensitized model has been described previously (Galanos et al., Proc Natl. Acad. Sci. USA 76: 5939-5943, 1979; and Lehmann et al., J. Exp. Med. 165: 657663, 1997). Mice were injected intraperitoneally with 20 mg D-galactosamine-HCL (Sigma)/mouse (in 200 μl PBS) and 0.1 or 1 mg of either HMGB1 B box or vector protein (in 200 μl PBS).
To investigate whether the HMGB1 B box has cytokine activity in vivo, we administered HMGB1 B box protein to unanesthetized Balb/c mice sensitized with D-galactosamine (D-gal), a model that is widely used to study cytokine toxicity (Galanos et al., supra). Briefly, mice (20-25 gram, male, Harlan Sprague-Dawley, Indianapolis, IN) were intraperitoneally injected with D-gal (20 mg) (Sigma) and B box (0.1 mg/ml/mouse or 1 mg/ml/mouse) or GST tag (vector; 0.1 mg/ml/mouse or 1 mg/ml/mouse), as indicated in Table 1. […]

B1: B box: Recombinant GST-system human HMGB1 mutant containing only the B box, 74 amino acids, SEQ ID NO: 20 (protein, listed as Homo sapiens)
chain: FKDPNAPKRLPSAFFLFCSEYRPKIKGEHPGLSIGDVAKKLGEMWNNTAADDKQPYEKKAAKLKEKYEKDIAAY
modifications: GST system
Regarding B1, the “IL-6 release, dose dependence” value is given as “increased with increased amounts of B box” in series [1] and “dose-dependently stimulated release” in series [1] (listed as HMGB1 B box). The histology of heart result in series [2] (8 hours after administration) is “evidence of ischemia with loss of cross striation”. The histology of liver result in series [2] (8 hours after administration) is listed as “mild acute inflammatory responses”. Further, in series [2] (8 hours after administration), the “histology of lung and kidney” value is given as “no abnormal morphologic changes”. Besides, the lethality result in series [2] (C3H/HeJ mice (do not respond to endotoxin)) was “lethal”; in series [4] (0.1 or 1 mg/mouse i.p.), “lethal to D-galactosamine-sensitized mice in a dose-dependent manner”. Further, the TNF release result in series [3] (1 μg/ml protein, 8 hours, RAW 264.7 cells (FIG. 1)) is “potent activator of monocyte TNF release”. The “time of maximum TNF protein release” value in series [3] (10 μg/ml) is ≤ 8 h. In addition, the “TNF protein expression/release versus medium only” value in series [3] (10 μg/ml, 0 to 48 hours) is reported as “stimulated TNF protein expression”. Moreover, the “TNF release, dose dependence” value is given as “increased with increased amounts of B box” in series [3] and “dose-dependently stimulated release” in series [3] (listed as HMGB1 B box). Moreover, the Alive/total in series [4] (0.1 mg/mouse i.p. with D-gal 20 mg) is 6/6; in series [4] (1 mg/mouse i.p. with D-gal 20 mg), 2/8*. Also, the time of death in series [4] (instances in which death occurred) was ≤ 12 h. In series [4] (survivors followed for 2 weeks), the “late deaths among survivors” value was “no later deaths from B box toxicity were observed”.
